This assay deals with SARS-CoV-2 HexaPro spike glycoprotein (SARS-CoV-2, ancestral (Wuhan-Hu-1), …, stabilised). The experiment in a line: cryo-EM structure.

B1: PVI.V6-14 Fab (Fab, V domains shown)
VH: QVQLQESGPGLVKPSETLSLTCTVSGGSISSSSYYWGWIRQPPGKGLEWIGSIYYSGSTYYNPSLKSRVTISVDTSKNQFSLKLSSVTAADTAVYYCARCRPEYYFGSGSYLDFDY
VL: DIQMTQSPSSVSASVGDRVTITCRASQGISSWLAWYQQKPGKAPKLLIYAASSLQSGVPSRFSGSGSGTDFTLTISSLQPEDFATYYCQQANSFPLTFGGGTKVEIK
Broadly, the stoichiometry N is a count of units in the complex or per binding partner. In the case of B1, the “stoichiometry N” value came out at 2 Fabs per spike trimer.

Source of the values: doi:10.1101/2021.07.08.451649 (bioRxiv, 2021).
